Biological target: T1, recombinant human IL13 (human, UniProt P35225 35-146, limits assumed)
T1 construct: also called Antigen2
Test: SPR, BIACORE 3000; antibody captured by anti-human Fc, antigen 0-25 nM as analyte
Protocol: Kinetic characterization of purified antibodies was performed using surface plasmon resonance technology on a BIACORE 3000 (GE Healthcare). […] Chip surfaces were regenerated with 10 mM glycine, pH 2.5. Kinetic parameters were analyzed and calculated in the BIAevaluation program package v4.1 using a flow cell without captured antibody as reference.

T1 sequence (P35225 35-146 limits assumed): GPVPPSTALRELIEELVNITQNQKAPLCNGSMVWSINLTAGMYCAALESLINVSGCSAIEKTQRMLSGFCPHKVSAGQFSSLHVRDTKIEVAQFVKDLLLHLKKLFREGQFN

Kd: 0.0818 nM
B1: parental anti-IL13 mAb (antibody, V domains shown)
VH: EVQLKESGPGLVAPGGSLSITCTVSGFSLTDSSINWVRQPPGKGLEWLGMIWGDGRIDYADALKSRLSISKDSSKSQVFLEMTSLRTDDTATYYCARDGYFPYAMDFWGQGTSVTVSS
VL: DIVLTQSPASLAVSLGQRATISCRASESVDSYGQSYMHWYQQKAGQPPKLLIYLASNLESGVPARFSGSGSRTDFTLTIDPVQAEDAATYYCQQNAEDSRTFGGGTKLEIK
notes: also called parental humanized anti-IL13; BB13

Reference: patent publication US20180155450A1 (Sanofi, published 2018)
